Paper PMC4532856 (Nature Communications, 2015)

Legend:
[1] = target: T1, full-length glucagon receptor purified from Sf9 membranes (Homo sapiens, UniProt P47871); assay: negative-stain EM (random conical tilt 3D maps); purified GCGR in lauryl maltose neopentyl glycol mixed with mAb23 Fab, complex isolated by size exclusion chromatography, stained with 2% uranyl formate; conditions: both partners purified
T1 construct: glucagon receptor (GCGR), full-length construct; the small molecule NNC0640 was present throughout; also called full-length GCGR; GCGR; source: Sf9 membranes, solubilised in DDM/CHS, purified (talon resin), exchanged into lauryl maltose neopentyl glycol

[2] = target: T2, full-length glucagon receptor (GCGR), purified from Sf9 membranes for EM (Homo sapiens, UniProt P47871); assay: negative-stain electron microscopy map (random conical tilt); mAb23 Fab mixed with detergent-purified GCGR (lauryl maltose neopentyl glycol, NNC0640), complex isolated by size exclusion chromatography; 2% uranyl formate stain; about 0.01 uM protein; conditions: both partners purified
T2 construct: glucagon receptor (GCGR), human, called the full-length construct; also called full-length GCGR; full-length construct

GCGR = conditions: cited from earlier work

T2 sequence (P47871 26-477): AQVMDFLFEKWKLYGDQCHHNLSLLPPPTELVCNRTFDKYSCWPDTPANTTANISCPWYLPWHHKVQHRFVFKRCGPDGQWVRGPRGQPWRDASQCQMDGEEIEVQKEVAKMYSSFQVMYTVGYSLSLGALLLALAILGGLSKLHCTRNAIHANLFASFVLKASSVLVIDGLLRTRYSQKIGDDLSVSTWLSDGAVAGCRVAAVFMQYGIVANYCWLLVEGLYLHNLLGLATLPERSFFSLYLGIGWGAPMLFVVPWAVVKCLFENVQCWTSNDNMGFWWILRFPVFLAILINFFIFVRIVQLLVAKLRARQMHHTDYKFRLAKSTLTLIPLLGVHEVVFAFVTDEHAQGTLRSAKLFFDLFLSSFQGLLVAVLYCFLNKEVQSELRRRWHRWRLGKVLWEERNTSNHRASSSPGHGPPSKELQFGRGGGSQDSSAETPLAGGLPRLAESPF
T1 sequence (P47871 26-477): as above

B1: antigen-binding fragment (Fab) of the monoclonal antibody mAb23 (Fab, V domains shown)
VH: EVQLVESGGGLVQPGGSLRLSCAASGFNIYYNYIHWVRQAPGKGLEWVAEFSPYSGSTYYADSVKGRFTISADTSKNTAYLQMNSLRAEDTAVYYCARSAAIVDWYDYFKGFDYWGQGTLVTVSS
VL: DIQMTQSPSSLSASVGDRVTITCRASQSVSSAVAWYQQKPGKAPKLLIYSASSLYSGVPSRFSGSRSGTDFTLTISSLQPEDFATYYCQQYGSYLYTFGQGTKVEIK
notes: The alignment numbers light chain 1-215 and heavy chain 216-443 in one run; also called mAb23 Fab; source: kindly provided by Genentech
binding result [1]: binds

B2: antigen-binding fragment (Fab) of the monoclonal antibody mAb23 (Fab, V domains shown)
VH: EVQLVESGGGLVQPGGSLRLSCAASGFNIYYNYIHWVRQAPGKGLEWVAEFSPYSGSTYYADSVKGRFTISADTSKNTAYLQMNSLRAEDTAVYYCARSAAIVDWYDYFKGFDYWGQGTLVTVSS
VL: DIQMTQSPSSLSASVGDRVTITCRASQSVSSAVAWYQQKPGKAPKLLIYSASSLYSGVPSRFSGSRSGTDFTLTISSLQPEDFATYYCQQYGSYLYTFGQGTKVEIK
notes: Related to mAb1, whose Fab is in PDB 4ERS (cited); also called mAb23 Fab; source: kindly provided by Genentech
binding result [2]: binds

B3: mAb23: monoclonal antibody that interacts with the ECD of GCGR; Fab kindly provided by Genentech (antibody, V domains shown)
VH: EVQLVESGGGLVQPGGSLRLSCAASGFNIYYNYIHWVRQAPGKGLEWVAEFSPYSGSTYYADSVKGRFTISADTSKNTAYLQMNSLRAEDTAVYYCARSAAIVDWYDYFKGFDYWGQGTLVTVSS
VL: DIQMTQSPSSLSASVGDRVTITCRASQSVSSAVAWYQQKPGKAPKLLIYSASSLYSGVPSRFSGSRSGTDFTLTISSLQPEDFATYYCQQYGSYLYTFGQGTKVEIK
effect on glucagon binding to the receptor (GCGR): preventing glucagon from binding to the receptor
